B1: CD20-C8H1 CAR (other)
chain: QVQLVQSGAEVKKPGASVKVSCKASGYTFTRYNMHWVRQAPGQRLEWMGAIYPGNGDTSYSQKFKGRVTITADKSASTAYMELSSLRSEDTAVYYCARSFFYGSSDWYFDVWGQGTTVTVSSGGGGSGGGGSGGGGSGGGGSEIVLTQSPDFQSVTPKEKVTITCRASSSVNNMHWYQQKPDQSPKPLIYATSNLASGVPSRFSGSGSGTDYTLTINSLEAEDAATYYCQQWIFNPPTFGQGTKLEIKTTTPAPRPPTPAPTIASQPLSLRPEACRPAAGGAVHTRGLDFACDIYIWAPLAGTCGVLLLSLVITLYCKRGRKKLLYIFKQPFMRPVQTTQEEDGCSCRFPEEEEGGCELRVKFSRSADAPAYQQGQNQLYNELNLGRREEYDVLDKRRGRDPEMGGKPRRKNPQEGLYNELQKDKMAEAYSEIGMKGERRRGKGHDGLYQGLSTATKDTYDALHMQALPPR
notes: CAR on cell surface; residues 1-21 = signal peptide
B2: CD20-C8H3 CAR (other)
chain: QVQLVQSGAEVKKPGSSVKVSCKASGYTFTRYNMHWVRQAPGQGLEWMGAIYPGNGDTSYSQKFKGRVTITADKSTSTAYMELSSLRSEDTAVYYCARSFFYGSSDWYFDVWGQGTTVTVSSGGGGSGGGGSGGGGSGGGGSEIVLTQSPDFQSVTPKEKVTITCRASSSVNNMHWYQQKPDQSPKPLIYATSNLASGVPSRFSGSGSGTDYTLTINSLEAEDAATYYCQQWIFNPPTFGQGTKLEIKTTTPAPRPPTPAPTIASQPLSLRPEACRPAAGGAVHTRGLDFACDIYIWAPLAGTCGVLLLSLVITLYCKRGRKKLLYIFKQPFMRPVQTTQEEDGCSCRFPEEEEGGCELRVKFSRSADAPAYQQGQNQLYNELNLGRREEYDVLDKRRGRDPEMGGKPRRKNPQEGLYNELQKDKMAEAYSEIGMKGERRRGKGHDGLYQGLSTATKDTYDALHMQALPPR
notes: as for B1
B3: CD20-C2H1 CAR (other)
chain: QVQLVQSGAEVKKPGASVKVSCKASGYTFTNYWMHWVRQAPGQGLEWMGFITPTTGYPEYNQKFKDRVTMTADKSTSTAYMELSSLRSEDTAVYYCARRKVGKGVYYALDYWGQGTTVTVSSGGGGSGGGGSGGGGSGGGGSDIQMTQSPSSLSASVGDRVTITCRASGNIHNYLAWYQQKPGKVPKLLIYNTKTLADGVPSRFSGSGSGTDYTLTISSLQPEDVATYYCQHFWSSPWTFGGGTKVEIKTTTPAPRPPTPAPTIASQPLSLRPEACRPAAGGAVHTRGLDFACDIYIWAPLAGTCGVLLLSLVITLYCKRGRKKLLYIFKQPFMRPVQTTQEEDGCSCRFPEEEEGGCELRVKFSRSADAPAYQQGQNQLYNELNLGRREEYDVLDKRRGRDPEMGGKPRRKNPQEGLYNELQKDKMAEAYSEIGMKGERRRGKGHDGLYQGLSTATKDTYDALHMQALPPR
notes: CAR on cell surface
B4: CD20-C2H2 CAR (other)
chain: QVQLVQSGAEVKKPGSSVKVSCKASGYTFTNYWMHWVRQAPGQGLEWMGFITPTTGYPEYNQKFKDRVTITADKSTSTAYMELSSLRSEDTAVYYCARRKVGKGVYYALDYWGQGTTVTVSSGGGGSGGGGSGGGGSGGGGSDIQMTQSPSSLSASVGDRVTITCRASGNIHNYLAWYQQKPGKVPKLLIYNTKTLADGVPSRFSGSGSGTDYTLTISSLQPEDVATYYCQHFWSSPWTFGGGTKVEIKTTTPAPRPPTPAPTIASQPLSLRPEACRPAAGGAVHTRGLDFACDIYIWAPLAGTCGVLLLSLVITLYCKRGRKKLLYIFKQPFMRPVQTTQEEDGCSCRFPEEEEGGCELRVKFSRSADAPAYQQGQNQLYNELNLGRREEYDVLDKRRGRDPEMGGKPRRKNPQEGLYNELQKDKMAEAYSEIGMKGERRRGKGHDGLYQGLSTATKDTYDALHMQALPPR
notes: as for B1
B5: CD20-C8H2 CAR (other)
chain: QVQLVQSGAEVKKPGASVKVSCKASGYTFTRYNMHWVRQAPGQRLEWMGAIYPGNGDTSYSQKFKGRVTITADKSASTAYMELSSLRSEDTAVYYCARSFFYGSSDWYFDVWGQGTTVTVSSGGGGSGGGGSGGGGSGGGGSDIQLTQSPSFLSASVGDRVTITCRASSSVNNMHWYQQKPGKAPKPLIYATSNLASGVPSRFSGSGSGTEYTLTISSLQPEDFATYYCQQWIFNPPTFGQGTKLEIKTTTPAPRPPTPAPTIASQPLSLRPEACRPAAGGAVHTRGLDFACDIYIWAPLAGTCGVLLLSLVITLYCKRGRKKLLYIFKQPFMRPVQTTQEEDGCSCRFPEEEEGGCELRVKFSRSADAPAYQQGQNQLYNELNLGRREEYDVLDKRRGRDPEMGGKPRRKNPQEGLYNELQKDKMAEAYSEIGMKGERRRGKGHDGLYQGLSTATKDTYDALHMQALPPR
notes: as for B1
B6: CD20-C5H4 CAR (other)
chain: QVQLVQSGAEVKKPGSSVKVSCKASGYTFTSYNMHWVRQAPGQGLEWMGAIYPGNGDTSYNPKFKGRVTITADKSTRTAYMELSSLRSEDTAVYYCARSYFYGSSSWYFDVWGQGTTVTVSSGGGGSGGGGSGGGGSGGGGSDIQLTQSPSFLSASVGDRVTITCRASSSVSSMHWYQQKPGKAPKPLIFATSNLASGVPSRFSGSGSGTEYTLTISSLQPEDFATYYCQQWIFNPPTFGGGTKVEIKTTTPAPRPPTPAPTIASQPLSLRPEACRPAAGGAVHTRGLDFACDIYIWAPLAGTCGVLLLSLVITLYCKRGRKKLLYIFKQPFMRPVQTTQEEDGCSCRFPEEEEGGCELRVKFSRSADAPAYQQGQNQLYNELNLGRREEYDVLDKRRGRDPEMGGKPRRKNPQEGLYNELQKDKMAEAYSEIGMKGERRRGKGHDGLYQGLSTATKDTYDALHMQALPPR
notes: as for B1
B7: CD20-C5H2 CAR (other)
chain: QVQLVQSGAEVKKPGASVKVSCKASGYTFTSYNMHWVRQAPGQGLEWMGAIYPGNGDTSYNPKFKGRVTMTADKSTRTAYMELSSLRSEDTAVYYCARSYFYGSSSWYFDVWGQGTTVTVSSGGGGSGGGGSGGGGSGGGGSDIQLTQSPSFLSASVGDRVTITCRASSSVSSMHWYQQKPGKAPKPLIFATSNLASGVPSRFSGSGSGTEYTLTISSLQPEDFATYYCQQWIFNPPTFGGGTKVEIKTTTPAPRPPTPAPTIASQPLSLRPEACRPAAGGAVHTRGLDFACDIYIWAPLAGTCGVLLLSLVITLYCKRGRKKLLYIFKQPFMRPVQTTQEEDGCSCRFPEEEEGGCELRVKFSRSADAPAYQQGQNQLYNELNLGRREEYDVLDKRRGRDPEMGGKPRRKNPQEGLYNELQKDKMAEAYSEIGMKGERRRGKGHDGLYQGLSTATKDTYDALHMQALPPR
notes: as for B1
B8: CD20-C8H4 CAR (other)
chain: QVQLVQSGAEVKKPGSSVKVSCKASGYTFTRYNMHWVRQAPGQGLEWMGAIYPGNGDTSYSQKFKGRVTITADKSTSTAYMELSSLRSEDTAVYYCARSFFYGSSDWYFDVWGQGTTVTVSSGGGGSGGGGSGGGGSGGGGSDIQLTQSPSFLSASVGDRVTITCRASSSVNNMHWYQQKPGKAPKPLIYATSNLASGVPSRFSGSGSGTEYTLTISSLQPEDFATYYCQQWIFNPPTFGQGTKLEIKTTTPAPRPPTPAPTIASQPLSLRPEACRPAAGGAVHTRGLDFACDIYIWAPLAGTCGVLLLSLVITLYCKRGRKKLLYIFKQPFMRPVQTTQEEDGCSCRFPEEEEGGCELRVKFSRSADAPAYQQGQNQLYNELNLGRREEYDVLDKRRGRDPEMGGKPRRKNPQEGLYNELQKDKMAEAYSEIGMKGERRRGKGHDGLYQGLSTATKDTYDALHMQALPPR
notes: as for B1
B9: CD20-C5H1 CAR (other)
chain: QVQLVQSGAEVKKPGASVKVSCKASGYTFTSYNMHWVRQAPGQGLEWMGAIYPGNGDTSYNPKFKGRVTMTADKSTRTAYMELSSLRSEDTAVYYCARSYFYGSSSWYFDVWGQGTTVTVSSGGGGSGGGGSGGGGSGGGGSEIVLTQSPATLSLSPGERATLSCRASSSVSSMHWYQQKPGQAPRPLIFATSNLASGIPARFSGSGSGTDYTLTISSLEPEDAAVYYCQQWIFNPPTFGGGTKVEIKTTTPAPRPPTPAPTIASQPLSLRPEACRPAAGGAVHTRGLDFACDIYIWAPLAGTCGVLLLSLVITLYCKRGRKKLLYIFKQPFMRPVQTTQEEDGCSCRFPEEEEGGCELRVKFSRSADAPAYQQGQNQLYNELNLGRREEYDVLDKRRGRDPEMGGKPRRKNPQEGLYNELQKDKMAEAYSEIGMKGERRRGKGHDGLYQGLSTATKDTYDALHMQALPPR
notes: as for B1
B10: CD20-C5H3 CAR (other)
chain: QVQLVQSGAEVKKPGSSVKVSCKASGYTFTSYNMHWVRQAPGQGLEWMGAIYPGNGDTSYNPKFKGRVTITADKSTRTAYMELSSLRSEDTAVYYCARSYFYGSSSWYFDVWGQGTTVTVSSGGGGSGGGGSGGGGSGGGGSEIVLTQSPATLSLSPGERATLSCRASSSVSSMHWYQQKPGQAPRPLIFATSNLASGIPARFSGSGSGTDYTLTISSLEPEDAAVYYCQQWIFNPPTFGGGTKVEIKTTTPAPRPPTPAPTIASQPLSLRPEACRPAAGGAVHTRGLDFACDIYIWAPLAGTCGVLLLSLVITLYCKRGRKKLLYIFKQPFMRPVQTTQEEDGCSCRFPEEEEGGCELRVKFSRSADAPAYQQGQNQLYNELNLGRREEYDVLDKRRGRDPEMGGKPRRKNPQEGLYNELQKDKMAEAYSEIGMKGERRRGKGHDGLYQGLSTATKDTYDALHMQALPPR
notes: as for B1

The target of this experiment is T1, human CD20 (human, UniProt P11836 1-297).
T1 construct: whole, on cells; cell-surface antigen; also called MS4A1
T1 sequence (looked up): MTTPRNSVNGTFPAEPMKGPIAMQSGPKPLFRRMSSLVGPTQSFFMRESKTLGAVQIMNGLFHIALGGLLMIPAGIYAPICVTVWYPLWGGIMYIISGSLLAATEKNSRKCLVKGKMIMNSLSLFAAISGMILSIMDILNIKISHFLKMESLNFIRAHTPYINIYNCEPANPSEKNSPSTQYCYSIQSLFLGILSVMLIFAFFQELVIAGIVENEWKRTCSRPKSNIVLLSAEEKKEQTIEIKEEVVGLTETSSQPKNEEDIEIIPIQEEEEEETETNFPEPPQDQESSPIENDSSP
Briefly: worded conclusion from JNL NFAT-luciferase reporter co-culture with CD20-positive cell lines. From the text:
To evaluate the functional ability of CD20 CARs to activate JNL cells, they were co-cultured with target cancer cells to read out their activation by quantifying luciferase expression. The humanized scFv-based CARs CD20-C2H1, -C2H2, -C2H3, -C2H4, -C3H1, -C3H2, -C3H3, -C3H4, -C5H1, -C5H2, -C5H3, -C5H4, -C8H1, -C8H2, -C8H3, and -C8H4, were compared to CD20-8aBBz and CD20-3, -3m, -3J, -3H5k3, and -3H5k1. The control CARs CD20-3 and CD20-8aBBz were used in all assays to compare assay variation and/or act as a control. The EGFRvIII CAR T cells (CAR 2174, Johnson et al., Science Translational Medicine 2015) were used as non-targeting control.
JNL CART cells were co-cultured with the Burkitt's lymphoma line Raji (RRID: CVCL_0511) and the diffuse large B cell lymphoma (DLBCL) lines Pfeiffer (RRID: CVCL_3326), HBL-1 (RRID: CVCL_4213) and TMD8 (RRID: CVCL_A442); K562 (RRID: CVCL_0004), a chronic myelogenous leukemia (CML) cell line, served as CD20-negative control. Co-cultures were set up in 384-well plates at effector-to-target (E:T) ratios of 4:1, 2:1, 1:1 and 0.5:1 and incubated for 24 h, after which the expression of luciferase by the activated JNL CAR T cells was quantified by britelite plus Reporter Gene Assay System (PerkinElmer, Waltham, Mass.). The amount of light emitted from each well (Luminescence) was a direct read-out of JNL activation by the respective CAR. […] Some of the humanized scFvs, which were fused to the transmembrane and signaling domains of the CARs, seem to have improved the efficacy of CARs to activate JNL T cells. These were CD20-C2H1, -C2H3, -C5H1, -C5H2, and -C8H3.
With B1, the binding result is listed as “binds”. For B2, the binding result is reported as “binds”.

Regarding B3, the binding result was “binds”.

As for B4, the binding result was “binds”. B5: the binding result is on record as “binds”. As to B6, the binding result is “binds”. As to B7, the binding result was “binds”. On to B8, for which the binding result is recorded as “binds”. In the case of B9, the binding result is given as “binds”. As for B10, the binding result is recorded as “binds”.

These data come from patent publication US20180125892A1 (published 2018).
